# From the RNAGym collection of RNA variant scans (doi:10.1093/nar/gkz1192)
# B1: CPEB3 Ribozyme (parent)
# chain: UAACAGGGGGCCACAGCAGAAGCGUUCACGUCGCAGCCCCUGUCAGAUUCUGGUGAAUCUGCGAAUUCUGCUGUAUAUCUC
# Variants of: B1
# Test: self-cleavage, relative activity (ratio to wild type); higher = more cleavage; in vitro, sequencing
# Outline: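 After error-prone PCR and barcoding, CPEB3 ribozyme mutant libraries were transcribed with T7 RNA polymerase at 37°C for 5 hours, then given 15 min with DNase I before an EDTA stop, and they cleaved during both steps. Reverse transcription with template switching preceded Illumina sequencing. Relative activity divides a variant's cleaved/total read fraction by the unmutated ribozyme's. At least 5 reads were required per variant, and three batches were averaged.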
row,Variant,self-cleavage
1,UAACAGGGGGCAGCAGCAGAAGCGUUCACGUCGCAGCCCCUGUCAGAUUCUGGUGAAUCUGCGAAUUCUGCUGUAUAUCUC,0.89
2,UAACAGGGGGCAACAGCUGAAGCGUUCACGUCGCAGCCCCUGUCAGAUUCUGGUGAAUCUGCGAAUUCUGCUGUAUAUCUC,0.48
3,UAACAGGGGGCAACAGCAGAAGCGUUCACGUCGCAGCCCCUGUCAGAUUCUAGUGAAUCUGCGAAUUCUGCUGUAUAUCUC,1.23
4,UAACAGGGGGCAACAGCAGAAGCGUUCACGUCGCAGCCCCUGUCAGAUUCUGGUGAGUCUGCGAAUUCUGCUGUAUAUCUC,1.06
5,UAACAGGGGGUCACAGCAGAAGCGUUCACGUCGCAGCCCCUGUCAGAUUCUGGUGAAUCUGCGAAUUCUGCUGUAUAUCCC,0.45
6,UAACAGGGGGUCACAGCAGAAGCGUUCACGUCGCAGCCCCUGUCAGAUUCUGGUGAAUCUGCGAAUUCUGCUGUAUAUCAC,0.31
7,UAACAGGGGGCAACAGCAGAAGCGUUCACGACGCAGCCCCUGUCAGAUUCUGGUGAAUCUGCGAAUUCUGCUGUAUAUCUC,0.65
8,UAACAGGGGGCAACAGCAGAAGCGUUCACGCCGCAGCCCCUGUCAGAUUCUGGUGAAUCUGCGAAUUCUGCUGUAUAUCUC,1.14
9,UAACAGGGGGUCACAGCAGAAGCGUUCACGUCGCAGCCCCUGUCAGAUUCUGGUGAAUCUGCGAAUUCUGCUGUACAUCUC,0.43
10,UAACAGGGGGCAACAGCAGAAGCGUUCACGUCGCAGCCCCUGUCAGAUUCUGGAGAAUCUGCGAAUUCUGCUGUAUAUCUC,1.1
11,UAACAGGGGGCAACAGCAGAAGCGUUCACGUCGCAGCCCCGGUCAGAUUCUGGUGAAUCUGCGAAUUCUGCUGUAUAUCUC,0.36
12,UAACAGGGGGCAACAGCAGAAGCGUUCACGUCGCAGCCCCCGUCAGAUUCUGGUGAAUCUGCGAAUUCUGCUGUAUAUCUC,0.99
13,UAACAGGGGGCAACAGCAGAAGCGCUCACGUCGCAGCCCCUGUCAGAUUCUGGUGAAUCUGCGAAUUCUGCUGUAUAUCUC,0.42
14,UAACAGGGGGCAACAGCAGAAGCGUUCACGUCGCUGCCCCUGUCAGAUUCUGGUGAAUCUGCGAAUUCUGCUGUAUAUCUC,1.27
15,UAACAGGGGGCAACAGCAGAAGCGUUCACGUCGCGGCCCCUGUCAGAUUCUGGUGAAUCUGCGAAUUCUGCUGUAUAUCUC,0.9
16,UAACAGGGGGCAACAGCAGAAGCGUUCACGUCGCAGCCCCUGUCUGAUUCUGGUGAAUCUGCGAAUUCUGCUGUAUAUCUC,0.49
17,UAACAGGGGGCAACAGCAGAAGCGUUCACGUCGCAGCCCCUGUCGGAUUCUGGUGAAUCUGCGAAUUCUGCUGUAUAUCUC,1.04

row,Variant,self-cleavage
1,UAACAGGGGGCAACAGCAGAAGCGUUCACGUCGCAGCCCCUGACAGAUUCUGGUGAAUCUGCGAAUUCUGCUGUAUAUCUC,0.99
2,UAACAGGGGGCAACAGCAAAAGCGUUCACGUCGCAGCCCCUGUCAGAUUCUGGUGAAUCUGCGAAUUCUGCUGUAUAUCUC,0.43
3,UAACAGGGGGCAACAGCAGAAGCGUUCACGUCGCAGCCCCUGUCAGAUUCUGGUGAAUCUGCGACUUCUGCUGUAUAUCUC,0.32
4,UAACAGGGGGCAACAGCAGAAGCGUUCACGUCGCAGCCCCUGUCAGAUUCUGGUGAAUCUGCGAGUUCUGCUGUAUAUCUC,0.44
5,UAACAGGGGGCAACAGCAGAAGCGUUCACGUCGCAGCCCCUGUCAGGUUCUGGUGAAUCUGCGAAUUCUGCUGUAUAUCUC,1.17
6,UAACAGGGGGCAACAGCAGAGGCGUUCACGUCGCAGCCCCUGUCAGAUUCUGGUGAAUCUGCGAAUUCUGCUGUAUAUCUC,0.73
7,UAACAGGGGGCAACGGCAGAAGCGUUCACGUCGCAGCCCCUGUCAGAUUCUGGUGAAUCUGCGAAUUCUGCUGUAUAUCUC,1.19
8,UAACAGGGGGCAACCGCAGAAGCGUUCACGUCGCAGCCCCUGUCAGAUUCUGGUGAAUCUGCGAAUUCUGCUGUAUAUCUC,1.17
9,UAACAGGGGGCAACAGCAGAAGCGUUCACGUCGCAGCCCCUGUCAGAUUCUGGUGAAUCUGCGAAUUCUGCUGUAUAUCUC,1.15
10,UAACAGGGGGCAACAGCAGAAGCGUUCAUGUCGCAGCCCCUGUCAGAUUCUGGUGAAUCUGCGAAUUCUGCUGUAUAUCUC,0.7
11,UAACAGGGGGCAACAGCAGAAGCGUUCACGUCGCAGCCCCUGUCAGAUUCUGGUGUAUCUGCGAAUUCUGCUGUAUAUCUC,0.81
12,UAACAGGGGGCAACAGCAGAAGCGUUCACGUCGCAGCCCCUGUCAGAUUCUGGUGGAUCUGCGAAUUCUGCUGUAUAUCUC,0.87
13,UAACAGGGGGCAACAGCAGAAGCGUUCACGUCGCAGCCCCUGUCAGAUUCUGGUCAAUCUGCGAAUUCUGCUGUAUAUCUC,0.78
14,UAACAGGGGGCAACAGCAGGAGCGUUCACGUCGCAGCCCCUGUCAGAUUCUGGUGAAUCUGCGAAUUCUGCUGUAUAUCUC,1.17
15,UAACAGGGGGCAACAGCAGUAGCGUUCACGUCGCAGCCCCUGUCAGAUUCUGGUGAAUCUGCGAAUUCUGCUGUAUAUCUC,0.32
16,UAACAGGGGGCAACAGCAGAAGCGUUCACGUCGCAGCCCCUGUCAGAUUCUGGUGAAUCUGGGAAUUCUGCUGUAUAUCUC,0.24
17,UAACAGGGGGCAACAGCAGAAGCGUUCACGUCGCAGCCCCUGUCAGAUUCUGGUGAAUCUGAGAAUUCUGCUGUAUAUCUC,0.71
